Reference: patent US20150342993A1, “COMPOSITIONS AND METHODS FOR IMMUNOTHERAPY” (MEMORIAL SLOAN-KETTERING CANCER CENTER, published 2015)

Molecular target: prostate-specific membrane antigen (Homo sapiens (Human), UniProt Q04609)
Assay: cell-based or functional assay

B1: P28BB (CAR)
chain: EVQLQQSGPELVKPGTSVRISCKTSGYTFTEYTIHWVKQSHGKSLEWIGNINPNNGGTTYNQKFEDKATLTVDKSSSTAYMELRSLTSEDSAVYYCAAGWNFDYWGQGTTVTVSSGGGGSGGGGSGGGGSDIVMTQSHKFMSTSVGDRVSIICKASQDVGTAVDWYQQKPGQSPKLLIYWASTRHTGVPDRFTGSGSGTDFTLTITNVQSEDLADYFCQQYNSYPLTFGAGTMLDLKRAAAIEVMYPPPYLDNEKSNGTIIHVKGKHLCPSPLFPGPSKPFWVLVVVGGVLACYSLLVTVAFIIFWVRSKRSRLLHSDYMNMTPRRPGPTRKHYQPYAPPRDFAAYRSRFSVVKRGRKKLLYIFKQPFMRPVQTTQEEDGCSCRFPEEEEGGCE
  long-term T cell proliferation (absolute T cell counts over 31 days, no exogenous cytokine): 58 fold expansion
